B1: AC104 (VP80) (natural protein)
chain: MNDSNSLLITRLAAQILSRNMQTVDVIVDDKTLSLEEKIDTLTSMVLAVNSPPQSPPRVTSSDLAASIIKNNSKMVGNDFEMRYNVLRMAVVFVKHYPKYYNETTAGLVAEIESNLLQYQNYVNQGNYQNIEGYDSLLNKAEECYVKIDRLFKESIKKIMDDTEAFEREQEAERLRAEQTAANALLERRAQTSADDVVNRADANIPTAFSDPLPGPSAPRYMYESSESDTYMETARRTAEHYTDQDKDYNAAYTADEYNSLVKTVLLRLIEKALATLKNRLHITTIDQLKKFRDYLNSDADAGEFQIFLNQEDCVILKNLSNLASKFFNVRCVADTLEVMLEALRNNIELVQPESDAVRRIVIKMTQEIKDSSTPLYNIAMYKSDYDAIKNKNIKTLFDLYNDRLPINFLDTSATSPVRKTSGKRSAEDDLLPTRSSKRANRPEINVISSEDEQEDDDVEDVDYEKESKRRKLEDEDFLKLKALEFSKDIVNEKLQKIIVVTDGMKRLYEYCNCKNSLETLPSAANYGSLLKRLNLYNLDHIEMNVNFYELLFPLTLYNDNDNSDKTLSHQLVNYIFLASNYFQNCAKNFNYMRETFNVFGPFKQIDFMVMFVIKFNFLCDMRNFAKLIDELVPNKQPNMRIHSVLVMRDKIVKLAFSNLQFQTFSKKDKSRNTKHLQRLIMLMNANYNVI
notes: AC104 (VP80) of AcMNPV, as present in the native nucleocapsid; only Ile490-Thr664 and Asn673-Asn685 (AC104-1, AC104-2) and Asp463-Ile691 (AC104-3) are resolved and modelled; also called AC104-1; AC104-2; source: AcMNPV ODV nucleocapsids from occlusion bodies of infected Spodoptera exigua larvae; alkaline lysis, centrifugation
B2: polyhedrin (natural protein)
chain: MPDYSYRPTIGRTYVYDNKYYKNLGAVIKNAKRKKHFAEHEIEEATLDPLDNYLVAEDPFLGPGKNQKLTLFKEIRNVKPDTMKLVVGWKGKEFYRETWTRFMEDSFPIVNDQEVMDVFLVVNMRPTRPNRCYKFLAQHALRCDPDYVPHDVIRIVEPSWVGSNNEYRISLAKKGGGCPIMNLHSEYTNSFEQFIDRVIWENFYKPIVYIGTDSAEEEEILLEVSLVFKVKEFAPDAPLFTGPAY
notes: polyhedrin of AcMNPV, left in the nucleocapsid sample after alkaline lysis of occlusion bodies; also called polyhedrins; source: present in the buffer of the AcMNPV nucleocapsid preparation (nucleocapsids not isolated by gradient centrifugation)
B3: major capsid protein VP39 (natural protein)
chain: MALVPVGMAPRQMRVNRCIFASIVSFDACITYKSPCSPDAYHDDGWFICNNHLIKRFKMSKMVLPIFDEDDNQFKMTIARHLVGNKERGIKRILIPSATNYQDVFNLNSMMQAEQLIFHLIYNNENAVNTICDNLKYTEGFTSNTQRVIHSVYATTKSILDTTNPNTFCSRVSRDELRFFDVTNARALRGGAGDQLFNNYSGFLQNLIRRAVAPEYLQIDTEELRFRNCATCIIDETGLVASVPDGPELYNPIRSSDIMRSQPNRLQIRNVLKFEGDTRELDRTLSGYEEYPTYVPLFLGYQIINSENNFLRNDFIPRANPNATLGGGAVAGPAPGVAGEAGGGIAV
notes: major capsid protein VP39 of Autographa californica multiple nucleopolyhedrovirus (AcMNPV), as present in the native nucleocapsid; regions described in the model run from Arg14 to Asn320; Native virion protein; forms disulfide-linked dimers arranged as a 14-start helical cylinder; also called VP39A; VP39B; source: AcMNPV ODV nucleocapsids from occlusion bodies of infected Spodoptera exigua …
B4: AC101 (BV/ODV-C42) (natural protein)
chain: MSAIALYLEINKLRLKIDEPMQLAIWPQLFPLLCDEHQSVQLNTDVLINFMMHVARKSQNTILNNNAAIASQYAAGNADVVAAPASAQPTPRPVINLFARANAAAPAQPSEELINMRRYRNAARKLIHHYSLNSTSSTEYKISDVVMTMIFLLRSEKYHSLFKLLETTFDDYTCRPQMTQVQTDTLLDAVRSLLEMPSTTIDLTTVDIMRSSFARCFNSPIMRYAKIVLLQNVALQRDKRTTLEELLIERGEKIQMLQPQQYINSGTEIPFCDDAEFLNRLLKHIDPYPLSRMYYNAANTMFYTTMENYAVSNCKFNIEDYNNIFKVMENIRKHSNKNSNDQDELNIYLGVQSSNAKRKKY
notes: AC101 (BV/ODV-C42) of AcMNPV, as present in the native nucleocapsid; ~110 N-terminal and ~30 C-terminal residues are not resolved; modelled parts include Glu112-Asn218, Ser219-Thr241 and Leu243-His334; also called BV/ODV-42; AC101-1; source: AcMNPV ODV nucleocapsids from occlusion bodies of infected Spodoptera exigua larvae; alkaline lysis, centrifugation

What was measured:
[1] = target: the molecule itself; assay: cryo-EM structure; head and base of native AcMNPV ODV nucleocapsids; local refinement 4.3 Å (elements common to both ends), 4.8 Å (base with AC98), 4.9 Å (plug); AlphaFold2 models docked into density and refined; partners co-purified as the native nucleocapsid
[2] = target: the molecule itself; assay: cross-linking; purified AcMNPV nucleocapsid, 2 mM BS3 on ice 2 h, stopped with 50 mM Tris-HCl pH 7.5; mass spectrometry, pLink2
AC104 (VP80) = target: B1; assay: cryo-EM structure; head and base of native AcMNPV ODV nucleocapsids; local refinement 4.3 Å (elements common to both ends), 4.8 Å (base with AC98), 4.9 Å (plug); AlphaFold2 models docked into density and refined; partners co-purified as the native nucleocapsid; settings: both partners purified
[3] = target: the molecule itself; assay: cryo-EM structure; helical cylinder of native AcMNPV ODV nucleocapsids; helical reconstruction 3.9 Å, local refinement 3.2 Å; VP39 model built de novo; partners co-purified as the native nucleocapsid

Binder: B1
- binding result [1]: binds

Binder: B2
- binding result [2]: binds

Binder: B3
- binding result (AC104 (VP80)): binds
- binding result [3]: binds

Binder: B4
- binding result [1]: binds

From article PMC10657434, “Architecture of the baculovirus nucleocapsid revealed by cryo-EM” (Nature Communications, 2023)
